For three molecules, EC50, IC50 and IC90 results are on record in patent US20230287088A1 (BIONTECH, published 2023).

Residue numbers refer to the chain shown, from its start.

The chains are these.
B1: 460 (bispecific antibody)
heavy chain: QSVEESGGRLVTPGTPLTLTCTVSGFSLSSYAMNWVRQAPGKGLEWIGIISSSGSTYYASWAKGRFTISKTSTTVDLKITSPTTEDTATYFCARVGAGYAGYGYDNYYGMDPWGPGTLVTVSSASTKGPSVFPLAPSSKSTSGGTAALGCLVKDYFPEPVTVSWNSGALTSGVHTFPAVLQSSGLYSLSSVVTVPSSSLGTQTYICNVNHKPSNTKVDKRVEPKSCDKTHTCPPCPAPEAAGGPSVFLFPPKPKDTLMISRTPEVTCVVVDVSHEDPEVKFNWYVDGVEVHNAKTKPREEQYNSTYRVVSVLTVLHQDWLNGKEYKCKVSNKALPAPIEKTISKAKGQPREPQVYTLPPSREEMTKNQVSLTCLVKGFYPSDIAVEWESNGQPENNYKTTPPVLDSDGSFFLYSKLTVDKSRWQQGNVFSCSVLHEALHSHYTQKSLSLSPGK
light chain fused to scFv: AIQMTQSPSSLAASVGDTVTITCKASEDIGYGLNWYQQKLGIAPKLLIYGANTLESGVPSRFSGSGSETDYTLTISSVQAEDAGIYYCQQGYSTPLTFGAGTKVEIKRTVAAPSVFIFPPSDEQLKSGTASVVCLLNNFYPREAKVQWKVDNALQSGNSQESVTEQDSKDSTYSLSSTLTLSKADYEKHKVYACEVTHQGLSSPVTKSFNRGECDVPGGSGGGGSGGGGSGGGGSQMQLVQSGTEVKKPGESLKISCKGSGYGFITYWIGWVRQMPGKCLEWMGIIYPGDSETRYSPSFQGQVTISADKSINTAYLQWSSLKASDTAIYYCAGGSGISTPMDVWGQGTTVTVGGGGSGGGGSGGGGSGGGGSDIQLTQSPDSLAVSLGERATINCKSSQSVLYSSINKNYLAWYQQKPGQPPKLLIYWASTRESGVPDRFSGSGSGTDFTLTISSLQAEDVAVYYCQQYYSTPYTFGCGTKVEIK
notes: also called LC of P043.A.00020.D06 with a C-terminal fusion of a scFv of anti-S1 antibody; HC of P043.A.00020.D06 as IgG1-LALA-LS
B2: 454 (bispecific antibody)
heavy chain: QSVEESGGRLVTPGTPLTLTCTVSGFSLSKYAMSWVRQAPGKGLEWIGIISSGGSTYYASWAKGRFTISKTSSTTVDLKITSPTTEDTATYFCARAGYPGYSPHYFNIWGPGTLVTVSLASTKGPSVFPLAPSSKSTSGGTAALGCLVKDYFPEPVTVSWNSGALTSGVHTFPAVLQSSGLYSLSSVVTVPSSSLGTQTYICNVNHKPSNTKVDKRVEPKSCDKTHTCPPCPAPEAAGGPSVFLFPPKPKDTLMISRTPEVTCVVVDVSHEDPEVKFNWYVDGVEVHNAKTKPREEQYNSTYRVVSVLTVLHQDWLNGKEYKCKVSNKALPAPIEKTISKAKGQPREPQVYTLPPSREEMTKNQVSLTCLVKGFYPSDIAVEWESNGQPENNYKTTPPVLDSDGSFFLYSKLTVDKSRWQQGNVFSCSVLHEALHSHYTQKSLSLSPGK
light chain fused to scFv: B1 light chain fused to scFv with G32E, S63T, L96P
notes: also called LC of P043.A.00023.A08 with a C-terminal fusion of a scFv of anti-S1 antibody; HC of P043.A.00023.A08 as IgG1-LALA-LS
B3: 455 (bispecific antibody)
heavy chain: QSVEESGGRLVTPGTPLTLTCTVSGFSLSSYAMSWVRQAPGKGLEWIGIISSSGSTYYASWAKGRFTISKTSTTVDLKITSPTTEDTATYFCARAMYPGYSTGVYNIWGPGTLVTVSLASTKGPSVFPLAPSSKSTSGGTAALGCLVKDYFPEPVTVSWNSGALTSGVHTFPAVLQSSGLYSLSSVVTVPSSSLGTQTYICNVNHKPSNTKVDKRVEPKSCDKTHTCPPCPAPEAAGGPSVFLFPPKPKDTLMISRTPEVTCVVVDVSHEDPEVKFNWYVDGVEVHNAKTKPREEQYNSTYRVVSVLTVLHQDWLNGKEYKCKVSNKALPAPIEKTISKAKGQPREPQVYTLPPSREEMTKNQVSLTCLVKGFYPSDIAVEWESNGQPENNYKTTPPVLDSDGSFFLYSKLTVDKSRWQQGNVFSCSVLHEALHSHYTQKSLSLSPGK
light chain fused to scFv: B1 light chain fused to scFv with G32E, S93N, L96N
notes: also called LC of P043.A.00017.E07 with a C-terminal fusion of a scFv of anti-S1 antibody; HC of P043.A.00017.E07 as IgG1-LALA-LS

One may read the EC50 as the concentration needed to bring the measured effect to its halfway point. The term IC50 denotes the concentration needed to halve the response being measured. In general, IC90 refers to the concentration at which the effect reaches the 90% level.

The target of one experiment is T1, Mouse-Fc-tagged SARS-CoV2 S1-RBD (Sino Biologicals) recombinant protein (SARS-CoV-2, UniProt P0DTC2 319-541).
T1 construct: domain: S1-RBD
The experiment can be described thus: ELISA on coated S1-RBD-mFc.
As for B1, the EC50 stood at 0.0153 µg/mL.
The same measure, in the same setting: the same measure for B2: 0.0178 µg/mL.
Take B3: the EC50 is 0.0116 µg/mL.

The next experiment concerns the target T1, Mouse-Fc-tagged SARS-CoV2 S1-RBD (Sino …). The experiment can be described thus: competition ELISA: blocks S1-RBD-mFc binding to coated ACE-2 ECD. Background: In an ELISA, binding on a coated surface is turned into a signal by an enzyme label.
As to B1, the IC50 is 0.0765 µg/mL and the IC90 worked out at 5.69 µg/mL.
For B2 the same measures were 0.0435 µg/mL and 0.453 µg/mL.
As to B3, the IC50 came to 0.0481 µg/mL and the IC90 came to 0.868 µg/mL.
